The values below come from US20250188167A1.

In test [1] the target is human B7-H3 (human) (UniProt Q5ZPR3). In words: cell-based or functional assay.
For test [2] the target is unchanged. In words: flow cytometry (FACS) on CHO-K1 cells expressing human B7-H3; goat anti-human IgG (H+L) secondary.
For test [3] the target is unchanged. Nature of the test: flow cytometry (FACS) on CHO-K1/B7-H3 cells.
Test [4] shares this target. Nature of the test: cell-based or functional assay. This is another data set of the same source.

Where two headings read alike, the source gives them in different places.

Sequence of UniProt Q5ZPR3 (Q5ZPR3 29-534): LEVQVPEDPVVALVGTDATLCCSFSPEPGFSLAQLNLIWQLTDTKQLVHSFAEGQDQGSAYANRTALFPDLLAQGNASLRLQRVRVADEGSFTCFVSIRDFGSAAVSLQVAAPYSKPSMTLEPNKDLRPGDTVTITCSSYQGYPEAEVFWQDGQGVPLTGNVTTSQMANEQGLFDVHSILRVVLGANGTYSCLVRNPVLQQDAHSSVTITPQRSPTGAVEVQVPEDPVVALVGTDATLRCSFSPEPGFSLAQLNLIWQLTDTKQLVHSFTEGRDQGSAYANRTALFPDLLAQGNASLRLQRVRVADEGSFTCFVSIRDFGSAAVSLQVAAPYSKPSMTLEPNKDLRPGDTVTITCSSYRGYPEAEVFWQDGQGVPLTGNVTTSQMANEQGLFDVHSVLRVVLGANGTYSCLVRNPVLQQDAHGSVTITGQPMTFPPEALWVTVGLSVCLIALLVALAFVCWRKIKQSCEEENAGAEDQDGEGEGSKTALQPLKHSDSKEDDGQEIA

DS-5573a (antibody): in the test with human B7-H3 (human) [1], the CDC % Relative activity (EC50 of positive control DS-5573a / EC50 of sample) is 100%; the CDC % Relative activity (EC50 of positive control DS-5573a / EC50 of sample), plate 01 was 100%; the CDC % Relative activity (EC50 of positive control DS-5573a / EC50 of sample), plate 02 worked out at 100%; the CDC EC50 (% target cell lysis, Cell Titer-Glo) is 0.69 µg/mL. In the test with human B7-H3 (human) [1], the CDC EC50 (% target cell lysis, Cell Titer-Glo), plate 01 was determined as 0.595 µg/mL and the CDC EC50 (% target cell lysis, Cell Titer-Glo), plate 02 was determined as 0.628 µg/mL.

The EC50 is the concentration that produces a half-maximal response. The low end stands for greater potency, the high end for weaker potency. In turn, MGA271 (Enoblituzumab) (antibody) returned an EC50 with human B7-H3 (human) [2] of 102000 pM. This molecule had an EC50 with human B7-H3 (human) [3] of 20800 pM. Besides, in the test with human B7-H3 (human) [1], the ADCC % Relative activity (EC50 of positive control MGA-271 / EC50 of sample), plate 01 came to 100%; the ADCC % Relative activity (EC50 of positive control MGA-271 / EC50 of sample), plate 02 is 100%; the ADCC EC50 (% target cell lysis, LDH; NK92/CD16a-VV effector cells), plate 01 came to 0.0394 µg/mL; the ADCC EC50 (% target cell lysis, LDH; NK92/CD16a-VV effector cells), plate 02 came out at 0.0443 µg/mL.

Take MGA271-hIgG1 (antibody): the EC50 in the test with human B7-H3 (human) [2] came out at 81600 pM.

B1: 12C9F1B5-VH4-VL2 (antibody, human IgG1, kappa, V domains shown)
VH: QVQLVQSGAEVKKPGASVKVSCKASGFTNYGMNWVRQAPGQRLEWMGWINPYSGVPTYADDFKGRVTITRDTSASTAYMELSSLRSEDTAVYYCARDDGFHYTMDYWGQGTLVTVSS
VL: DIVMTQSPLSLPVTPGEPASISCRSSQNLVHSNGITYLHWYLQKPGQSPQLLIYKVSNRFSGVPDRFSGSGSGTDFTLKISRVEAEDVGVYYCSQSTLVPWTFGQGTKVEIKR
Regarding B1, the EC50 with human B7-H3 (human) [2] stood at 338 pM. Further, in the test with human B7-H3 (human) [4], the CDC % Relative activity (EC50 of positive control DS-5573a / EC50 of sample), plate 01 came to 155% and the CDC EC50 (% target cell lysis, Cell Titer-Glo), plate 01 was 0.384 µg/mL.

B2: 12C9F1B5-VH2.1-VL2 (antibody, human IgG1, kappa, V domains shown)
VH: QVQLVQSGAEVKKPGASVKVSCKASGFTNYGMNWVRQAPGQGLEWMGWINPYSGVPTYADDFKGRVTMTRDTSISTAYMELSRLRSDDTAVYYCARDDGFHYTMDYWGQGTLVTVSS
VL: DIVMTQSPLSLPVTPGEPASISCRSSQNLVHSNGITYLHWYLQKPGQSPQLLIYKVSNRFSGVPDRFSGSGSGTDFTLKISRVEAEDVGVYYCSQSTLVPWTFGQGTKVEIKR
In turn, B2 displayed an EC50 in the test with human B7-H3 (human) [2] of 153 pM.

B3: 43H11G12-VH4-VL2 (antibody, human IgG1, kappa, V domains shown)
VH: QVQLVQSGAEVKKPGASVKVSCKASGYNFRDFGMNWVRQAPGQRLEWMGWLNSYSGVPTYADDFKGRVTITRDTSASTAYMELSSLRSEDTAVYYCARDDGYNYTMNYWGQGTLVTVSS
VL: DIVMTQSPLSLPVTPGEPASISCRSSQSLVHSNGITYLHWYLQKPGQSPQLLIYKVSNRFSGVPDRFSGSGSGTDFTLKISRVEAEDVGVYYCSQSTHVPWTFGQGTKVEIKR
As for B3, the concentration giving a half-maximal response (EC50) in the test with human B7-H3 (human) [2] was 155 pM. For the same molecule, in the test with human B7-H3 (human) [4], the CDC % Relative activity (EC50 of positive control DS-5573a / EC50 of sample), plate 01 is 104% and the CDC EC50 (% target cell lysis, Cell Titer-Glo), plate 01 stood at 0.57 µg/mL.

B4: 12C9F1B5 (antibody, V domains shown)
VH: QIQLVQSGPELKKPGETVKISCKASGFTNYGMNWVKQAPGKGLKWMGWINPYSGVPTYADDFKGRFAFSLETSASTAYLQINNLKNEDTATYFCARDDGFHYTMDYWGQGTSVTVSS
VL: DVVLTQTPLSLPVSLGDQASISCRSSQNLVHSNGITYLHWYLQKPGQSPKLLIYKVSNRFSGVPDRFSGSGSGTDFTLTISRVEAEDLGVYFCSQSTLVPWTFGGGTKLEIK
The molecule B4 yielded an EC50 with human B7-H3 (human) [3] of 4760 pM.

B5: 43H11G12 (antibody, V domains shown)
VH: QIQLVQSGPELKKPGETVKISCKASGYNFRDFGMNWVKQAPGKGLKWMGWLNSYSGVPTYADDFKGRFVLSLETSASTAYLQINNLINEDTATYFCGRDDGYNYTMNYWGQGTSVTVSS
VL: DVVMTQAPLSLPVSLGDQASISCRSSQSLVHSNGITYLHWYLQRAGQSPQLLIYKVSNRFSGVPDRFSGSGSGTDFTLKISRVEAEDLGVYFCSQSTHVPWTFGGGTKLEIK
Turning to B5, in the test with human B7-H3 (human) [3], the EC50 stood at 6380 pM.

B6: 38D6A4 (antibody, V domains shown)
VH: QIQLVQSGPELKKPGEAVKISCKASGSTFTDFGMNWVRQAPGKGLKWMGWINPYSGVPTYADEFKGRFVFSLETSARVAYMQINDLKNEDTATYFCARDDGYHYTMDYWGQGTSVTVSS
VL: DVVMTQTPLPLPVSLGDQASISCRSSQSLIHSNGITYLHWYLQKPGQSPKLLIYKVSNRFSGVPDRFTGSGSGTDFTLKISRVEAEDLGVYFCSQSTHVPWTFGGGSKLEIR
B6 displayed an EC50 with human B7-H3 (human) [3] of 1780 pM.

B7: 37D11F5B8 (antibody, V domains shown)
VH: QIQLVQSGPELKKPGETVKISCKASGDTFRNNGMNWVKQAPGKGLKWMGWINPYSGVPTYADDFKGRFAFSLETSASTAFLQINNLKNEDTATYFCARDDGYHYTMDFWGLGTSVTVSS
VL: DVVMTQTPLSLPVSLGDQASISCRSSQSLVHSNGITYLHWYLQKPGQSPKLLTYKVSHRFSGVPDRFSGSGSGTDFTLKISRVEAEDLGVYFCSQSTHVPWTFGGGTKLEIK
B7 yielded an EC50 in the test with human B7-H3 (human) [3] of 909 pM.

B8: 38F11B2 (antibody, V domains shown)
VH: QIQLVQSGPELKKPGETVKISCKASGYTFIDYGMNWVKQAPGKGLKWMGWINIYSGVPTYADDFKGRFAFSLETSANTAYLQINNLKNEDTATYFCARDDGYHYTMNYWGQGTSVTVSS
VL: DIVMTQTPLSLPVSLGDQASISCRSSQSLVHSNGITYLHWYLQKSGQSPKLLIYKVSNRFSGVPDRFSGSGSGTAFTLKISRVEAEDLGVYFCSQSTHVPWTFGGGTKLEIK
B8 displayed an EC50 with human B7-H3 (human) [3] of 651 pM. This EC50 and that of the molecule before are within 1.5-fold of each other.

B9: 47C7E3 (antibody, V domains shown)
VH: QIQLVQSGPELKKPGETVKISCKASGYTFTNFGMNWVKQAPGKGLKWMGWIYTPSGVPIYADDFKGRFAVSLETSASTAYLQINNLKNEDTATYFCARDDGYYYTMDYWGQGTSVTVSS
VL: DDVMTQTPLSLPVSLGDHASISCRSSQSLVHSNGDTYLHWYLQKPGQSPKLLIYKVSNRFSGVPDRFSGSGSGTDFTLKISRVEAEDLGVYFCSQSTHVPWTFGGGTKLEIK
As for B9, the EC50 with human B7-H3 (human) [3] was determined as 870 pM.

B10: 34A9C12 (antibody, V domains shown)
VH: QIQLVQSGPELKKSGETVKISCKASGFTNYGINWVKQAPGKGLKWMGWINPYSGVPTYADDFKGRFAFSLETSASTAYLQINNLKNEDSATYFCARDDGFHYTMDYWGQGTSVTVSS
VL: DVVLIQTPLSLPVSLGDQASISCRSSQNLVHSNGITYLHWYLQKPGQSPKLLIYKVSNRFSGVPDRFSGSGSGTDFTLKISRVEAEDLGVYFCSQSTLVPWTFGGGTKLEIK
Molecule B10 registered an EC50 with human B7-H3 (human) [3] of 822 pM.

B11: 37F11A10 (antibody, V domains shown)
VH: QIQLVQSGPELKKPGETVKISCKASGDTFRNYGMNWVKQAPGKGLKWMGWINPYSGVPTYADDFKGRFAFSLETSASTAFLQINNLKNEDTATYFCARDDGFHYTMDYWGLGTSVTVSS
VL: DVVMTQTPLSLPVSLGDQASISCRSSQSLLHSNGITYLHWYLQKPGQSPKLLTYKVSHRFSGVPDRFSGSGSGTDFTLKISRVEAEDLGVYFCSQSTHVPWTFGGGTKLEIR
B11 displayed an EC50 in the test with human B7-H3 (human) [3] of 1380 pM.

B12: 31H11B1 (antibody, V domains shown)
VH: QVQLQQPGAELGKPGTSVKLSCKASGYTFTSYWMHWVKQRPGQGLEWIGHINPNSGSTNQNAKFKNKATLTVDESSSTAYMQLSTLTSEDSAVYYCTRSGSNYRRNYFDYWGQGTTLTVSS
VL: DIQMTQSSSYLSVSLGGRVTITCKASDHINNWLAWYQQKPGNAPRLLISGATSLETGVPSRFSGSGSGKDYTLSITSLQTEDVATYYCQQYWSTPLTFGAGTKLELK
In the test with human B7-H3 (human) [3], B12 yielded an EC50 of 977 pM.

B13: 47F3F10B4-VH2-VL4 (antibody, human IgG1, kappa, V domains shown)
VH: QVQLVQSGAEVKKPGASVKVSCKASGYTFTDHYMHWVRQAPGQGLEWMGYIFPNNGVSGYNQNFKDRVTMTRDTSTSTVYMELSSLRSEDTAVYYCARRQLGLGTMDYWGQGTLVTVSS
VL: DIQMTQSPSSLSASVGDRVTITCRASKSVSTSGYNYMHWYQQKPGKAPKLLIYLASNLESGVPSRFSGSGSGTDFTLTISSLQPEDFATYYCQHSKELPWTFGQGTKVEIKR
B13: the EC50 in the test with human B7-H3 (human) [2] is 767 pM.

B14: 47F3F10B4-VH1-VL4(IgG1m) (antibody)
heavy: QVQLVQSGAEVKKPGASVKVSCKASGYTFTDHYMHWVRQAPGQGLEWMGYIFPNNGVSGYNQNFKDRVTMTRDTSISTAYMELSRLRSDDTAVYYCARRQLGLGTMDYWGQGTLVTVSSASTKGPSVFPLAPSSKSTSGGTAALGCLVKDYFPEPVTVSWNSGALTSGVHTFPAVLQSSGLYSLSSVVTVPSSSLGTQTYICNVNHKPSNTKVDKRVEPKSCDKTHTCPPCPAPELVGGPSVFLLPPKPKDTLMISRTPEVTCVVVDVSHEDPEVKFNWYVDGVEVHNAKTKPPEEQYNSTLRVVSVLTVLHQDWLNGKEYKCKVSNKALPAPIEKTISKAKGQPREPQVYTLPPSREEMTKNQVSLTCLVKGFYPSDIAVEWESNGQPENNYKTTPLVLDSDGSFFLYSKLTVDKSRWQQGNVFSCSVMHEALHNHYTQKSLSLSPGK
light: DIQMTQSPSSLSASVGDRVTITCRASKSVSTSGYNYMHWYQQKPGKAPKLLIYLASNLESGVPSRFSGSGSGTDFTLTISSLQPEDFATYYCQHSKELPWTFGQGTKVEIKRTVAAPSVFIFPPSDEQLKSGTASVVCLLNNFYPREAKVQWKVDNALQSGNSQESVTEQDSKDSTYSLSSTLTLSKADYEKHKVYACEVTHQGLSSPVTKSFNRGEC
The molecule B14 registered an EC50 with human B7-H3 (human) [2] of 299 pM. For the same molecule, in the test with human B7-H3 (human) [4], the CDC % Relative activity (EC50 of positive control DS-5573a / EC50 of sample), plate 02 worked out at 445% and the CDC EC50 (% target cell lysis, Cell Titer-Glo), plate 02 was found to be 0.141 µg/mL.

B15: 47F3F10B4 (antibody, V domains shown)
VH: EVQLQQSGPELVKPGASVKMSCKASGYTFTDHYMHWVKQSHGKSLEWIGYIFPNNGVSGYNQNFKDKATLTVDKSSSTAYMDLRSLTPEDSAVYYCTRRQLGLGTMDYWGQGTSVTVSS
VL: DIVLTQSPASLAVSLGQRATISCRASKSVSTSGYNYMHWYQQKPGQPPKLLIYLASNLESGVPARFSGSGSGTDFTLNIHPVEEEDAATYYCQHSKELPWTFGGGTKLEIK
In turn, B15 registered an EC50 with human B7-H3 (human) [3] of 751 pM.
